From article PMC3638996 (Structure (London, England : 1993), 2013)
Numbering of substitutions follows the chain as printed. Names may count otherwise.

T1: Murine Gαq (amino acids 7-359), biotinylated (mouse, UniProt P21279 7-359, biotinylated with biotinamidohexanoic acid N-hydroxysuccinimide)
T1 sequence (looked up): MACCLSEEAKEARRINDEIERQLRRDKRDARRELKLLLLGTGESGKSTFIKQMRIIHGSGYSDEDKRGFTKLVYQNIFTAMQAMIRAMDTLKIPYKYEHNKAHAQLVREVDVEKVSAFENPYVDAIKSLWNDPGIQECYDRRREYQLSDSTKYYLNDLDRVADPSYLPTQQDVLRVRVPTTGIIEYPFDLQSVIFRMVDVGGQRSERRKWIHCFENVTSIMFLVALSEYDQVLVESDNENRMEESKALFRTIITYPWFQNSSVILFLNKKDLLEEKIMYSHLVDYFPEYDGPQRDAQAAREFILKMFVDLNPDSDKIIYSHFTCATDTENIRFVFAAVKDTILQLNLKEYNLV

B1: RGS2 RH domain (residues 72-203), wild type (domain or fragment, human)
chain: GEFGSPSPEEAQLWSEAFDELLASKYGLAAFRAFLKSEFCEENIEFWLACEDFKKTKSPQKLSSKARKIYTDFIEKEAPKEINIDFQTKTLIAQNIQEATSGCFTTAQKRVYSLMENNSYPRFLESEFYQDLCKKPQ
B2: RGS2 RH domain (residues 72-203) S179K (domain or fragment, human)
chain: B1 chain with S113K
B3: RGS2 RH domain (residues 72-203) S179D (domain or fragment, human)
chain: B1 chain with S113D
B4: RGS2 RH domain (residues 72-203) N183F (domain or fragment, human)
chain: B1 chain with N117F
B5: RGS2 RH domain (residues 72-203) K175A (domain or fragment, human)
chain: B1 chain with K109A
B6: RGS2 RH domain (residues 72-203) S179N (domain or fragment, human)
chain: B1 chain with S113N
B7: RGS2 RH domain (residues 72-203) N183A (domain or fragment, human)
chain: B1 chain with N117A
B8: RGS2 RH domain (residues 72-203) E182A (domain or fragment, human)
chain: B1 chain with E116A
B9: RGS2 RH domain (residues 72-203) N183K (domain or fragment, human)
chain: B1 chain with N117K
B10: RGS2 RH domain (residues 72-203) S179M (domain or fragment, human)
chain: B1 chain with S113M
B11: Full-length RGS2, fluorescently labeled with Alexa Fluor-488 (natural protein, human, UniProt P41220 1-211, looked up)
chain: MQSAMFLAVQHDCRPMDKSAGSGHKSEEKREKMKRTLLKDWKTRLSYFLQNSSTPGKPKTGKKSKQQAFIKPSPEEAQLWSEAFDELLASKYGLAAFRAFLKSEFCEENIEFWLACEDFKKTKSPQKLSSKARKIYTDFIEKEAPKEINIDFQTKTLIAQNIQEATSGCFTTAQKRVYSLMENNSYPRFLESEFYQDLCKKPQITTEPHAT
modifications: labeled with Alexa Fluor-488 carboxylic acid, 2,3,5,6-tetrafluorophenyl ester, 5-isomer

Target: T1, Murine Gαq (amino acids 7-359), …
Test: bead-based flow cytometry competition assay

IC50 | Binder
270 nM | B1
3400 nM | B2
16000 nM | B3
170 nM | B4
560 nM | B5
690 nM | B6
1500 nM | B7
300 nM | B8
7100 nM | B9
130 nM | B10

Target: Gαi/q-R183C chimera (Gαq R183C with the N-terminal helix of Gαi), biotinylated (not stated | mouse)
Test: bead-based flow cytometry binding assay

Kd | Binder
22 nM | B11

Target: T1, Murine Gαq (amino acids 7-359), …
Test: bead-based flow cytometry binding assay

Kd | Binder
3.3 nM | B11
